In patent US20230381228A1 (University of California, published 2023):

B1: anti-DPP6 nanobody 2hD123-A24V (VHH)
VHH: QVQLQESGGGSVQAGGSLRLSCAVSGSSYSRFRMGWFRQVPGKEREGVAAIYRSDGRTYYADSVKGRFTISQDNTKNTVYLQMNSLKPEDTAMYYCAAGAYSSYLMDANFAYWGQGTQVTVSS
B2: anti-DPP6 nanobody 4hD29 (VHH)
VHH: QVQLQESGGGLVQPGGSLRLSCAASGFTFSSNYMTWVRQAPGKGPEWVSGINPDGSSTYYADSVKGRFTISRDNAKNTLYLQMNSLKSEDTALYKCATGAAPRIPTTLRGQGTQVTVSS
B3: anti-DPP6 nanobody 2hD1 (VHH)
VHH: QVQLQESGGGLVQPGGSLRLSCAASGYPYGYTFSSYCMRWFRQAPGKDREGVARFERNGLTTYYDDSVKGRFTISQDNVKNTVYLQMNSLKPEDTATYYCAAAPKQLRTCGDYNYWGQGTQVTVSS
B4: anti-DPP6 nanobody 2hD6 (VHH)
VHH: QVQLQESGGGSVQAGGSLRLSCAASSYTYSYSCMAWFRQAPGKERERVASIHTGTGTANYADSAKGRFTISQDIAANTVYLQMNSLKLEDTAMYYCAARPGSAALRCTTDYSKPHDFTYWGQGTQVTVSS

biological target: T1, dipeptidyl aminopeptidase-like protein 6 (DPP6), human isoform 1 (human, UniProt P42658 117-865, limits assumed); assay: affinity, method not stated (Table 1-4)
T1 construct: also called DPPX; DPP6 L
T1 sequence (P42658 117-865 limits assumed): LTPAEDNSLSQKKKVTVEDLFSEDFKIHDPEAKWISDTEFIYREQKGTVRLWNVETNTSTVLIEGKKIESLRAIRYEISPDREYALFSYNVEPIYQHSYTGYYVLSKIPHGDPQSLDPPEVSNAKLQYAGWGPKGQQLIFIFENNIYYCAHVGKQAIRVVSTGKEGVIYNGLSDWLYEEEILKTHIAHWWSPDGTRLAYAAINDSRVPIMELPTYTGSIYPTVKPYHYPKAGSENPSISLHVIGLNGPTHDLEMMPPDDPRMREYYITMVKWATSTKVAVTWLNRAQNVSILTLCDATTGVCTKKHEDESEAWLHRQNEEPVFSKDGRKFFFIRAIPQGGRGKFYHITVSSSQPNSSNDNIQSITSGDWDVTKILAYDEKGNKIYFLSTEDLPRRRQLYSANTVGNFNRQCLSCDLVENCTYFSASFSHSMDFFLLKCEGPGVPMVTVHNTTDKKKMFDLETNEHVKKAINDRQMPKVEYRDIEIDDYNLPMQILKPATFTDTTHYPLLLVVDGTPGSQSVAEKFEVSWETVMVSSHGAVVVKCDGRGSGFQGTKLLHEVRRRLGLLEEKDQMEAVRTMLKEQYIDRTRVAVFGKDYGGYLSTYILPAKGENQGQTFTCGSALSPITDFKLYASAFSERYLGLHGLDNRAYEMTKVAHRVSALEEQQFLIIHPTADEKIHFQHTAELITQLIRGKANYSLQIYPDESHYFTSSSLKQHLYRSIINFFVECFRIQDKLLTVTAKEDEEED

Row | Binder | Kd
1 | B1 | 27.2 nM
2 | B2 | 1.2 nM
3 | B3 | 69 nM
4 | B4 | 13 nM
